# Source: paper PMC5120204, “Identification of an orally active small-molecule PTHR1 agonist for the treatment of hypoparathyroidism” (Nature Communications, 2016)
# Where two headings read alike, the source gives them in different places.
# What was measured:
# [1] = human; ref Calcifi Tissue Int 2010 87:485, J Bone Miner Res 2013 28:2232, J Pharmcol Exp Ther 2009 330:169; cited from earlier work
# OVX rats = assay: Repeated administration study in OVX rats; format: in vivo, rat; settings: day 84, all treated rats
# Description: OVX was carried out in 32-week-old female Crl:CD (SD) rats (Charles River Laboratories). Twelve weeks after surgery, lumbar vertebral BMD (L3–L5) was measured in vivo by dual-energy X-ray absorptiometry (DXA) using a DCS-600EX-IIIR bone densitometer (Hitachi Aloka Medical), and the rats were divided into five groups, each with a similar mean value of BMD and body weight. Sample sizes were determined based on previous experiments with hPTHs and a published study with ibandronate and eldecalcitriol in our laboratories[42] (n=7–10). Then, OVX rats were treated once daily intravenously (vehicle or PCO371 at 3 or 10 mg kg^−1) or orally (vehicle or PCO371 at 30 mg kg^−1) or subcutaneously [vehicle or hPTH(1–34) at 0.9 nmol kg^−1] for 12 weeks. Ten to twelve OVX rats were assigned to each dose group. Nine rats were assigned to the sham-operated control group and were treated with vehicle for PCO371. Ten per cent DMSO (Wako Pure Chemical Industries)/10% Kolliphor EL (Sigma-Aldrich) in 10% hydroxypropyl-β-cyclodextrin (HPCD; Nihon Shokuhin Kako)/0.752% glycine (Wako Pure Chemical Industries) buffer was used as vehicle for PCO371, and phosphate-citrate buffer (pH 6.0) was used as vehicle for hPTH(1–34). To label bone-forming surfaces, tetracycline ([…], Nippon Zenyaku Kogyo) was subcutaneously injected on Day 78 and calcein (8 mg kg^−1, Dōjindo Laboratories) was subcutaneously injected on day 83. Under isoflurane anaesthesia, jugular vein blood was collected immediately before and at 1, 2, 6, 10 and 24 h after administration on day 82 to measure plasma concentration of PCO371 or on day 84 to measure serum Ca levels (o-CPC method, Wako Pure Chemical Industries). Urine was collected for 24 h from metabolic cages on days 84–85 to measure urinary collagen type 1 cross-linked C-telopeptide (CTX) by using the RatLaps ELISA System (Immunodiagnostic Systems). Under isoflurane anaesthesia, blood was collected on day 85 from the abdominal aorta to measure serum osteocalcin level by using the Rat Osteocalcin ELISA System (GE Healthcare). The lumbar spine and bilateral femurs were excised after 12 weeks of treatment. The first lumbar vertebra (L1), 3rd to 5th lumbar vertebrae (L3–L5), the right femur, and the right tibia were preserved in 70% ethanol to measure bone histomorphometry and BMD (DCS-600EX; Hitachi Aloka Medical). Measurement of bone histomorphometry was performed by the Ito Bone Histomorphometry Institute (Niigata, Japan). The second lumbar vertebra (L2) was wrapped in saline-soaked gauze and stored at −80 °C until measurement. Ultimate compressive strength (N) of the L2 vertebra was measured by using a mechanical testing machine (TK-252C; Muromachi Kikai).
# [2] = Pharmacokinetics in normal rats
# Description: (§3) PCO371 was administered at a dose of 2, 6 or 18 mg kg^−1 orally to 7-week-old normal female rats (RccHan: WIST, JLA; three rats for each dose group), or at a dose of 2, 6 or 18 mg kg^−1 orally to 7-week-old female TPTX rats [Crl:CD(SD), Charles River Laboratories; three TPTX rats for each dose group] or at 30 mg kg^−1 orally or 3, 10 mg kg^−1 intravenously to 55-week-old OVX rats as described above. Blood samples were collected at 15 and 30 min, and 1, 2, 4, 8 and 24 h after administration. […] The concentrations of plasma PCO371 were determined by liquid chromatography–tandem mass spectrometry [LC-MS/MS (API-3200 (AB SCIEX), detection limit: 1 ng ml^−1).
# in vivo = settings: female, Crl:CD(SD), rat, sc
# Description: as §3
# rat PTHR2 = molecular target: T1, rat PTHR2 (Rattus norvegicus, UniProt P70555); assay: cAMP production assay in COS-7 cells expressing rat PTHR2; format: cell-based
# T1 construct: expressed in transfected cells; host or cells: COS-7 (transient)
# T1 sequence (P70555 25-546): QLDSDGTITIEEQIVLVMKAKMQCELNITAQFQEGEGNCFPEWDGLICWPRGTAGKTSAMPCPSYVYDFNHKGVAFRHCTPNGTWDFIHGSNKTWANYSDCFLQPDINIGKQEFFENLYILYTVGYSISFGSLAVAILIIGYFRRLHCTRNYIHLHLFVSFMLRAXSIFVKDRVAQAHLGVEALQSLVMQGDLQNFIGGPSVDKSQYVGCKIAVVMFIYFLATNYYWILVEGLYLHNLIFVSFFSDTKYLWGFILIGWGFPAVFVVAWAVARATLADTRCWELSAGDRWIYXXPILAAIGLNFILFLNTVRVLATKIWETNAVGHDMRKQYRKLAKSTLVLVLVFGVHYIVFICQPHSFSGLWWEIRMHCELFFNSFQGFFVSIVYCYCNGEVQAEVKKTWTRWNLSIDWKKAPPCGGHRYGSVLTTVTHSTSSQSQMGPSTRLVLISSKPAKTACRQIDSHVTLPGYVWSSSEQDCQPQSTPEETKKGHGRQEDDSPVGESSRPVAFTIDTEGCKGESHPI
# Description: (§1) COS-7 cells (ATCC) were seeded into a 96-well flat-bottomed plate (1.4 × 10^4 cells per 100 μl per well) and incubated overnight. The next day, the COS-7 cells were transfected by adding 10 μl of a mixture of hPTHR1, hPTHR2 or mutant hPTHR1 plasmid, rat PTHR1 or rat PTHR2 plasmid, or empty vector (0.1 μg per well), FuGENE HD Transfection Reagent (0.4 μl per well, Promega), and Opti-MEM I Reduced Serum Medium (10 μl per well, Life Technologies) to each well. […] The plate was placed in a 37 °C constant-temperature water bath for 20 min to allow the reaction to proceed. After incubation, the liquid in the wells was discarded, the wells were washed with the assay medium (100 μl per well), and the plate was frozen on dry ice. Next, 40 μl of 50 mmol l^−1 HCl was added to each well, and the plate was stored in a freezer set at ≤−20 °C. The cAMP concentrations were measured by using a cAMP EIA kit (GE Healthcare). EC50 values were determined from three independent experiments in duplicate by a non-linear regression Emax model (JMP ver.9.0.2, SAS Institute). The geometric mean of the EC50 values obtained in three experiments in duplicate was calculated using Microsoft Office Excel 2007. […]
# hPTHR2 = molecular target: T2, hPTHR2 (Homo sapiens, UniProt P49190); assay: cAMP production assay in COS-7 cells expressing hPTHR2; format: cell-based; settings: COS-7 cells expressing human PTHR2
# T2 construct: expressed in transfected cells; host or cells: COS-7 (transient)
# T2 sequence (P49190 25-550): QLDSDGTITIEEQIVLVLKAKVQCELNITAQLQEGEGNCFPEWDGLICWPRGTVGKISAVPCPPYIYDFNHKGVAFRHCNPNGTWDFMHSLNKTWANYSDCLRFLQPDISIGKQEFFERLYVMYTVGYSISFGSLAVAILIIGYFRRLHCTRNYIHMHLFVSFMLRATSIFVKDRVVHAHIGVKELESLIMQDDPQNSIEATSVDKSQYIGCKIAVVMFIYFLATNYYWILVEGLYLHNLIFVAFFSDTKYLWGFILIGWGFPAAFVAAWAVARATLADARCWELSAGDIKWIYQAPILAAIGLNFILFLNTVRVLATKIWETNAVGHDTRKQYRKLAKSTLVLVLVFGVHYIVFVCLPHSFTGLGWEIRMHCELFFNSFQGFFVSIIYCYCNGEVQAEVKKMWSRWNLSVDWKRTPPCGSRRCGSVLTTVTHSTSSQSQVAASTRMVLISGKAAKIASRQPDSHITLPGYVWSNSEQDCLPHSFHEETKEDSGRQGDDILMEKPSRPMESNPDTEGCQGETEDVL
# Description: as §1
# TPTX rats [3] = assay: Repeated administration study in TPTX rats, study 2 (add-on to alfacalcidol); format: in vivo, rat; settings: alone at 75 ng kg^−1 once-daily oral, 4 weeks
# Description: (§2) TPTX was carried out in 6-week-old female Crl:CD (SD) rats (Charles River Laboratories). Rats with serum Ca levels of <8.0 mg dl^−1 at 5 days after surgery were used in the following experiments. The rats were divided into four groups both in study 1 and 2, each with a similar mean value of serum Ca levels and body weight. Sample sizes were determined as described in the above single administration study. To evaluate the calcemic effects of PCO371 and hPTHs, we defined a target therapeutic range for serum Ca of 7.6–11.2 mg dl^−1, which corresponds to the low normal to normal range of serum Ca levels.
# TPTX rats were orally treated once daily (vehicle; alfacalcidol (Chugai Pharma Manufacturing) at 38 or 75 ng kg^−1; or alfacalcidol at 38 ng kg^−1 plus PCO371 at 6 mg kg^−1) for 4 weeks. Five or six TPTX rats were assigned to each dose group. The vehicle for alfacalcidol was medium-chain triglyceride (Chugai Pharma Manufacturing). Under isoflurane anaesthesia, jugular vein blood was collected immediately before and at 6 and 10 h after administration to measure serum Ca levels on day 1 (the first dosing day), 8, 14, 22 and 28. Urine was collected for 24 h by using metabolic cages on days 28 and 29. Serum and urine Ca levels were measured in the same way as in the single-dosing study.
# patients = test system: patients; set-up: method as in PMID 23649554; settings: once-daily dosing; cited from earlier work
# [4] = Pharmacokinetics in TPTX rats; format: in vivo, rat
# TPTX rats [5] = assay: Single administration study in TPTX rats; format: in vivo, rat; settings: TPTX studies, 0.9 nmol/kg
# Description: TPTX was carried out in 6-week-old female Crl:CD(SD) rats (Charles River Laboratories). Rats with serum Ca levels of <8.0 mg dl^−1 at 5 days after surgery were used for the experiment. The rats were divided into six groups, each with a similar mean value of serum Ca levels and body weight. TPTX rats were treated once orally (vehicle or PCO371 at 1.3, 6.5 or 33 mg kg^−1) or subcutaneously (vehicle or hPTH(1–84) (Chugai Pharmaceutical) at 9 nmol kg^−1). Six TPTX rats were assigned to each dose group. The sample size was determined based on previous experiments and a published study with hPTHs and LA-PTH in our laboratories[24] (n=5–6). Vehicle for PCO371 was the same as in the OVX rat study, and phosphate-citrate buffer (pH 6.0) was used as vehicle for hPTH(1–84). Under isoflurane anaesthesia, jugular vein blood was collected immediately before and at 1, 2, 6, 10 and 24 h after administrations to measure serum Ca (o-CPC method, Wako Pure Chemical Industries) and Pi levels (xanthine oxidase method, Wako Pure Chemical Industries).
# In another experiment, the effects of a single treatment with PCO371 or hPTH(1–34) on serum Ca and Pi in TPTX rats (6-week-old) were evaluated at the dose of 3, 9.5 or 30 mg kg^−1 (PCO371, p.o.) or 9 nmol kg^−1 (hPTH(1–34), s.c.) according to the same method as that described above.
# TPTX rats [6] = assay: Repeated administration study in TPTX rats, study 1; format: in vivo, rat
# Description: as §2
# TPTX rats were treated twice daily (at around 09:00 and 19:00 hours) orally (vehicle or PCO371 at 1, 3 or 9 mg kg^−1) or subcutaneously [hPTH(1–34) or vehicle at 9 nmol kg^−1] for 4 weeks. Four rats were assigned to sham control, and treated with vehicle for PCO371. Vehicles for PCO371 and hPTH(1–34) were the same as in the OVX rat study. Under isoflurane anaesthesia, jugular vein blood was collected immediately before and at 6 and 10 h (for PCO371) or at 1 and 10 h (for hPTH) after administrations to measure the serum Ca levels on days 1 (the first dosing day), 7, 14, 22 and 29. Urine was collected for 24 h by using metabolic cages on days 29–30, and Ca excretion was calculated from urine volume and Ca level. Under isoflurane anaesthesia, jugular vein blood was collected 10 h after administrations to measure serum 1,25(OH)2D3 levels on Day 29 by using a 1,25(OH)2D3 RIA kit (Fujirebio). Four or five TPTX rats were assigned to each dose group. Serum and urine Ca levels were measured in the same way as in the single-dosing study. In another experiment, TPTX rats were treated subcutaneously once daily with hPTH(1–84) at 9 nmol kg^−1, for 4 weeks. Serum Ca was measured immediately before and at 2, 6 and 10 h after administration on day 1 (the first dosing day), 7, 14, 21 and 28 using the same method as described above. Urine was collected for 24 h by using metabolic cages on days 28 and 29, and Ca excretion was calculated from urine volume and Ca level.
# [7] = set-up: method as in earlier work; settings: rat; ref Calcifi Tissue Int 2010 87:485, J Bone Miner Res 2013 28:2232, J Pharmcol Exp Ther 2009 330:169; cited from earlier work
# [8] = female, Crl:CD(SD), rat, plasma, sc, 3 nmol/kg
compound,measurement,setting,value
"CC[C@H](C)[C@H](NC(=O)[C@H](CCC(=O)O)NC(=O)[C@H](CO)NC(=O)[C@@H](NC(=O)[C@@H](N)CO)C(C)C)C(=O)N[C@@H](CCC(N)=O)C(=O)N[C@@H](CC(C)C)C(=O)N[C@@H](CCSC)C(=O)N[C@@H](Cc1cnc[nH]1)C(=O)N[C@@H](CC(N)=O)C(=O)N[C@@H](CC(C)C)C(=O)NCC(=O)N[C@@H](CCCCN)C(=O)N[C@@H](Cc1cnc[nH]1)C(=O)N[C@@H](CC(C)C)C(=O)N[C@@H](CC(N)=O)C(=O)N[C@@H](CO)C(=O)N[C@@H](CCSC)C(=O)N[C@@H](CCC(=O)O)C(=O)N[C@@H](CCCN=C(N)N)C(=O)N[C@H](C(=O)N[C@@H](CCC(=O)O)C(=O)N[C@@H](Cc1c[nH]c2ccccc12)C(=O)N[C@@H](CC(C)C)C(=O)N[C@@H](CCCN=C(N)N)C(=O)N[C@@H](CCCCN)C(=O)N[C@@H](CCCCN)C(=O)N[C@@H](CC(C)C)C(=O)N[C@@H](CCC(N)=O)C(=O)N[C@@H](CC(=O)O)C(=O)N[C@H](C(=O)N[C@@H](Cc1cnc[nH]1)C(=O)N[C@@H](CC(N)=O)C(=O)N[C@@H](Cc1ccccc1)C(=O)O)C(C)C)C(C)C [hPTH(1–34), reference compound]",Tmax,[1],30 min
same,serum Ca,OVX rats,within the normal range
same,AUC(0-inf),[2]; [8],0.99 ± 0.17 ng·h/mL
same,Cmax,[2]; [8],2.42 ± 0.53 ng/mL
same,Tmax,[2]; [8],6 ± 6 min
same,bioavailability,[2]; [8],22%
same,Tmax,[2]; rat (Table 1),5 min
same,Cmax,"[2]; rat, plasma, sc, 0.9 nmol/kg",~0.125 ng/mL
same,half-life,in vivo,15 min
same,half-life,in vivo; 3 nmol/kg,18 ± 6 min
"TIP39: tuberoinfundibular peptide of 39 residues, the cognate ligand for PTHR2 [reference compound]",cAMP production,rat PTHR2,showed an increase in cAMP production
same,cAMP production,hPTHR2,showed an increase in cAMP production
"C=C1/C(=C\C=C2/CCC[C@]3(C)[C@@H]([C@H](C)CCCC(C)C)CC[C@@H]23)C[C@@H](O)C[C@@H]1O [Alfacalcidol, 1α-hydroxycholecalciferol, reference compound]",serum Ca,TPTX rats [3],normalized the serum Ca to within or above the target therapeutic range
same,urinary Ca excretion,TPTX rats [3],considerable urinary Ca excretion
"hPTH(1–84): the full-length, native PTH molecule called human PTH(1–84) [reference compound]",duration of observed effects,patients,up to 24 h
same,patients with hypercalcemia at peak times,patients,71%
same,time of peak Ca levels after administration,patients,around 7 h
same,AUC,[4]; s.c. 30 nmol kg-1,1.80 ± 0.78 ng·h/mL
same,Cmax,[4]; s.c. 30 nmol kg-1,3.42 ± 1.10 ng/mL
same,T1/2,[4]; s.c. 30 nmol kg-1,12 ± 6 min
same,Tmax,[4]; s.c. 30 nmol kg-1,12 ± 12 min
same,AUC,[4]; s.c. 100 nmol kg-1,8.55 ± 4.63 ng·h/mL
same,Cmax,[4]; s.c. 100 nmol kg-1,8.67 ± 1.97 ng/mL
same,T1/2,[4]; s.c. 100 nmol kg-1,102 ± 132 min
same,Tmax,[4]; s.c. 100 nmol kg-1,6 ± 6 min
same,AUC,[4]; s.c. 300 nmol kg-1,21.0 ± 5.58 ng·h/mL
same,Cmax,[4]; s.c. 300 nmol kg-1,39.7 ± 10.3 ng/mL
same,T1/2,[4]; s.c. 300 nmol kg-1,66 ± 54 min
same,Tmax,[4]; s.c. 300 nmol kg-1,6 ± 6 min
same,Tmax at the first peak,[1],15 min
same,Tmax at the second peak,[1],120 min
same,serum Ca levels,TPTX rats [5],failed to induce any changes
same,urinary Ca excretion,"TPTX rats [6]; after 4-week treatment, s.c. once daily 9 nmol kg^−1",No increase
same,serum Ca,"TPTX rats [6]; subcutaneous 9 nmol kg^−1 for 4 weeks, target therapeutic range 7.6–11.2 mg dl^−1",transiently increased serum Ca to within the target therapeutic range
same,Tmax,[7],5 to 15 min
